Measurements as given in US20260201064A1 (ISU ABXIS, published 2026).
Numbering of substitutions follows the chain as printed. Like-named read-outs stand apart in the source and are kept apart here. One block for each binder: values may come before it.

What was measured:
[1] = target: T1, recombinant human ASM protein (human, UniProt P17405 47-630); test: BLI (Octet), antibody on AHC sensor
T1 construct: Recombinant human ASM in solution; also called acid sphingomyelinase (ASM) protein
T1 sequence: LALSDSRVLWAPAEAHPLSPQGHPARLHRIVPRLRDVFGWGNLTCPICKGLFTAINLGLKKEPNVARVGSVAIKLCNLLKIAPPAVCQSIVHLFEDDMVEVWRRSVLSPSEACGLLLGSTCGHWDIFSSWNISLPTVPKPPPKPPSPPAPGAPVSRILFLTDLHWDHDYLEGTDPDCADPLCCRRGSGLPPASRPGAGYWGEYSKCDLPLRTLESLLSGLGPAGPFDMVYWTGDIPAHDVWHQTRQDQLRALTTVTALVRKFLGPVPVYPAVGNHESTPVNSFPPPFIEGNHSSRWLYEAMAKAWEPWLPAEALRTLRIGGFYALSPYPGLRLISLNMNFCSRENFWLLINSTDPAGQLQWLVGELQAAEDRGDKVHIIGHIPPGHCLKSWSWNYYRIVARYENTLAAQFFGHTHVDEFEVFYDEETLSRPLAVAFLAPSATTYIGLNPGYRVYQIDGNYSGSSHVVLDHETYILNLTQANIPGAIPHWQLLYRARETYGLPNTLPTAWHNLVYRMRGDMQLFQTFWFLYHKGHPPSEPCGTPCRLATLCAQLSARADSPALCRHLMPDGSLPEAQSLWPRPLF
Description: (§1) The binding affinity, to the ASM protein, of the produced antibodies specifically binding to the ASM protein and the interactive dynamics therebetween were measured using an Octet® QK384 system (Pall Life Sciences).
(§2) First, an antibody specifically binding to the ASM protein produced in Example 1 was captured using an anti-human IgG Fc capture (AHC) biosensor, and 1.25, 2.5, 5, 10, or 20 nM recombinant human ASM protein solution was added thereto. […] The association constant (Kₐ), dissociation constant (Kd), and equilibrium dissociation constant (KD) for each antibody were determined using Octet® analysis software (Pall Life® Sciences). As a result, the binding affinities, to the human ASM protein, of the antibodies with mutations in the heavy chain CDR regions of the antibody #9104 as depicted in Table 1 are shown in Table 5, and the binding affinities, to the human ASM protein, of the antibodies with mutations of the light chain CDR regions in the antibody #9104 as depicted in Table 2 are shown in Table 6.

[2] = target: T1, recombinant human ASM protein; test: BLI (Octet), antibody on AHC sensor; remark: listed apart in the source
Description: as §1, §2

- Kd [1]: 1.2 nM
- koff [1]: 0.000333 s⁻¹
- kon [1]: 278000 M⁻¹ s⁻¹
B1: #9104v-H02 (antibody, human IgG4 S228P, lambda, V domains shown)
VH: EVQLLESGGGLVQPGGSLRLSCAASGFTFSNYYMSWVRQAPGKGLEWVSGIYFGSGDIRYADSVKGRFTISRDNSKNTLYLQMNSLRAEDTAVYYCARDTPGFDYWGQGTLVTVSS
VL: QSVLTQPPSASGTPGQRVTISCTGSSSNIGNNAVNWYQQLPGTAPKLLIYYDSHRPSGVPDRFSGSKSGTSASLAISGLRSEDEADYYCGAWDYSLSAYVFGGGTKLTVLG
notes: Full-length IgG, lambda

- Kd [2]: 1.8 nM
- koff [2]: 0.000343 s⁻¹
- kon [2]: 191000 M⁻¹ s⁻¹
B2: #9104v-L38 (antibody, human IgG4 S228P, lambda, V domains shown)
VH: B1 VH with F53Y, D57N, R59Y
VL: B1 VL with H54Y, S57F
notes: Full-length IgG, lambda

- Kd [2]: 1.37 nM
- koff [2]: 0.000439 s⁻¹
- kon [2]: 321000 M⁻¹ s⁻¹
B3: #9104v-L32 (antibody, human IgG4 S228P, lambda, V domains shown)
VH: B1 VH with F53Y, D57N, R59Y
VL: B1 VL with H54Y, R55L
notes: Full-length IgG, lambda

- Kd [2]: 0.785 nM
- koff [2]: 0.000225 s⁻¹
- kon [2]: 286000 M⁻¹ s⁻¹
B4: #9104v-L49 (antibody, human IgG4 S228P, lambda, V domains shown)
VH: B1 VH with F53Y, D57N, R59Y
VL: B1 VL with S53T, H54F, S57T
notes: Full-length IgG, lambda

- Kd [2]: 1.52 nM
- koff [2]: 0.000443 s⁻¹
- kon [2]: 291000 M⁻¹ s⁻¹
B5: #9104v-L39 (antibody, human IgG4 S228P, lambda, V domains shown)
VH: B1 VH with F53Y, D57N, R59Y
VL: B1 VL with H54Y, S57G
notes: Full-length IgG, lambda

- Kd [2]: 1.02 nM
- koff [2]: 0.000355 s⁻¹
- kon [2]: 348000 M⁻¹ s⁻¹
B6: #9104v-L27 (antibody, human IgG4 S228P, lambda, V domains shown)
VH: B1 VH with F53Y, D57N, R59Y
VL: B1 VL with H54F, P56Q
notes: Full-length IgG, lambda

- Kd [2]: 1.27 nM
- koff [2]: 0.000289 s⁻¹
- kon [2]: 227000 M⁻¹ s⁻¹
B7: #9104v-L33 (antibody, human IgG4 S228P, lambda, V domains shown)
VH: B1 VH with F53Y, D57N, R59Y
VL: B1 VL with H54Y, R55P, S57Y
notes: Full-length IgG, lambda

- Kd [2]: 1.41 nM
- koff [2]: 0.000255 s⁻¹
- kon [2]: 181000 M⁻¹ s⁻¹
B8: #9104v-L63 (antibody, human IgG4 S228P, lambda, V domains shown)
VH: B1 VH with F53Y, D57N, R59Y
VL: B1 VL with S95W, S97G
notes: Full-length IgG, lambda

- Kd [2]: 1.41 nM
- koff [2]: 0.000415 s⁻¹
- kon [2]: 294000 M⁻¹ s⁻¹
B9: #9104v-L47 (antibody, human IgG4 S228P, lambda, V domains shown)
VH: B1 VH with F53Y, D57N, R59Y
VL: B1 VL with H54Y, R55T
notes: Full-length IgG, lambda

- Kd [2]: 0.879 nM
- koff [2]: 0.00017 s⁻¹
- kon [2]: 193000 M⁻¹ s⁻¹
B10: #9104v-L55 (antibody, human IgG4 S228P, lambda, V domains shown)
VH: B1 VH with F53Y, D57N, R59Y
VL: B1 VL with S53W, H54Y, S57T
notes: Full-length IgG, lambda

- Kd [1]: 0.857 nM
- koff [1]: 0.000281 s⁻¹
- kon [1]: 328000 M⁻¹ s⁻¹
B11: #9104v-H14 (antibody, human IgG4 S228P, lambda, V domains shown)
VH: B1 VH with F53Y, D57K, I58P, R59Y
VL: B1 VL
notes: Full-length IgG, lambda

- Kd [2]: 0.882 nM
- koff [2]: 0.000259 s⁻¹
- kon [2]: 294000 M⁻¹ s⁻¹
B12: #9104v-L25 (antibody, human IgG4 S228P, lambda, V domains shown)
VH: B1 VH with F53Y, D57N, R59Y
VL: B1 VL with H54F, R55P, P56A
notes: Full-length IgG, lambda

- Kd [2]: 0.982 nM
- koff [2]: 0.000264 s⁻¹
- kon [2]: 269000 M⁻¹ s⁻¹
B13: #9104v-L52 (antibody, human IgG4 S228P, lambda, V domains shown)
VH: B1 VH with F53Y, D57N, R59Y
VL: B1 VL with S53V, S57R
notes: Full-length IgG, lambda

- Kd [2]: 0.768 nM
- koff [2]: 0.000199 s⁻¹
- kon [2]: 259000 M⁻¹ s⁻¹
B14: #9104v-L11 (antibody, human IgG4 S228P, lambda, V domains shown)
VH: B1 VH with F53Y, D57N, R59Y
VL: B1 VL with S53I, H54F, R55Q
notes: Full-length IgG, lambda

- Kd [2]: 0.718 nM
- koff [2]: 0.000159 s⁻¹
- kon [2]: 221000 M⁻¹ s⁻¹
B15: #9104v-L12 (antibody, human IgG4 S228P, lambda, V domains shown)
VH: B1 VH with F53Y, D57N, R59Y
VL: B1 VL with S53I, H54F, S57D
notes: Full-length IgG, lambda

- Kd [1]: 0.719 nM
- koff [1]: 0.000243 s⁻¹
- kon [1]: 338000 M⁻¹ s⁻¹
B16: #9104v-H17 (antibody, human IgG4 S228P, lambda, V domains shown)
VH: B1 VH with Q39R, F53Y, D57T, I58P, R59Y, D62A
VL: B1 VL
notes: Full-length IgG, lambda

- Kd [1]: 0.651 nM
- koff [1]: 0.000154 s⁻¹
- kon [1]: 237000 M⁻¹ s⁻¹
B17: #9104v-H10 (antibody, human IgG4 S228P, lambda, V domains shown)
VH: B1 VH with F53Y, S55N, D57I, I58P, R59Y, G66D
VL: B1 VL
notes: Full-length IgG, lambda

- Kd [1]: 0.803 nM
- koff [1]: 0.000185 s⁻¹
- kon [1]: 231000 M⁻¹ s⁻¹
B18: #9104v-H13 (antibody, human IgG4 S228P, lambda, V domains shown)
VH: B1 VH with F53Y, D57I, I58P, R59Y, D62N
VL: B1 VL
notes: Full-length IgG, lambda

- Kd [2]: 0.532 nM
- koff [2]: 0.000192 s⁻¹
- kon [2]: 360000 M⁻¹ s⁻¹
B19: #9104v-L65 (antibody, human IgG4 S228P, lambda, V domains shown)
VH: B1 VH with F53Y, D57N, R59Y
VL: B1 VL with S53Y, H54Y, R55Q, P56S
notes: Full-length IgG, lambda

- Kd [1]: 0.781 nM
- koff [1]: 0.000195 s⁻¹
- kon [1]: 250000 M⁻¹ s⁻¹
B20: #9104v-H11 (antibody, human IgG4 S228P, lambda, V domains shown)
VH: B1 VH with F53Y, D57I, I58P, R59Y, G66E
VL: B1 VL
notes: Full-length IgG, lambda

- Kd [2]: 0.505 nM
- koff [2]: 0.000193 s⁻¹
- kon [2]: 383000 M⁻¹ s⁻¹
B21: #9104v-L64 (antibody, human IgG4 S228P, lambda, V domains shown)
VH: B1 VH with F53Y, D57N, R59Y
VL: B1 VL with S53Y, H54F, R55S, P56H
notes: Full-length IgG, lambda

- Kd [2]: 0.658 nM
- koff [2]: 0.000162 s⁻¹
- kon [2]: 247000 M⁻¹ s⁻¹
B22: #9104v-L20 (antibody, human IgG4 S228P, lambda, V domains shown)
VH: B1 VH with F53Y, D57N, R59Y
VL: B1 VL with S53M, H54F, S57G
notes: Full-length IgG, lambda

- Kd [1]: 1.03 nM
- koff [1]: 0.000177 s⁻¹
- kon [1]: 171000 M⁻¹ s⁻¹
B23: #9104v-H05 (antibody, human IgG4 S228P, lambda, V domains shown)
VH: B1 VH with F53Y, S55G, G56V, D57K, R59Y
VL: B1 VL
notes: Full-length IgG, lambda

- Kd [2]: 0.556 nM
- koff [2]: 0.000135 s⁻¹
- kon [2]: 243000 M⁻¹ s⁻¹
B24: #9104v-L21 (antibody, human IgG4 S228P, lambda, V domains shown)
VH: B1 VH with F53Y, D57N, R59Y
VL: B1 VL with S53M, H54F, S57N
notes: Full-length IgG, lambda

- Kd [2]: 1.03 nM
- koff [2]: 0.000238 s⁻¹
- kon [2]: 231000 M⁻¹ s⁻¹
B25: #9104v-L19 (antibody, human IgG4 S228P, lambda, V domains shown)
VH: B1 VH with F53Y, D57N, R59Y
VL: B1 VL with S53L, H54F
notes: Full-length IgG, lambda

- Kd [2]: 0.817 nM
- koff [2]: 0.000185 s⁻¹
- kon [2]: 226000 M⁻¹ s⁻¹
B26: #9104v-L23 (antibody, human IgG4 S228P, lambda, V domains shown)
VH: B1 VH with F53Y, D57N, R59Y
VL: B1 VL with S53Q, H54F
notes: Full-length IgG, lambda

- Kd [2]: 0.992 nM
- koff [2]: 0.000273 s⁻¹
- kon [2]: 275000 M⁻¹ s⁻¹
B27: #9104v-L15 (antibody, human IgG4 S228P, lambda, V domains shown)
VH: B1 VH with F53Y, D57N, R59Y
VL: B1 VL with S53I, S57Y
notes: Full-length IgG, lambda

- Kd [2]: 1.61 nM
- koff [2]: 0.000493 s⁻¹
- kon [2]: 306000 M⁻¹ s⁻¹
B28: #9104v-L34 (antibody, human IgG4 S228P, lambda, V domains shown)
VH: B1 VH with F53Y, D57N, R59Y
VL: B1 VL with H54Y, R55Q, P56A
notes: Full-length IgG, lambda

- Kd [2]: 0.88 nM
- koff [2]: 0.000258 s⁻¹
- kon [2]: 293000 M⁻¹ s⁻¹
B29: #9104v-L46 (antibody, human IgG4 S228P, lambda, V domains shown)
VH: B1 VH with F53Y, D57N, R59Y
VL: B1 VL with H54Y, P56S, S57W
notes: Full-length IgG, lambda

- Kd [2]: 1.27 nM
- koff [2]: 0.000327 s⁻¹
- kon [2]: 259000 M⁻¹ s⁻¹
B30: #9104v-L37 (antibody, human IgG4 S228P, lambda, V domains shown)
VH: B1 VH with F53Y, D57N, R59Y
VL: B1 VL with H54Y, P56A
notes: Full-length IgG, lambda

- Kd [2]: 1.05 nM
- koff [2]: 0.000254 s⁻¹
- kon [2]: 241000 M⁻¹ s⁻¹
B31: #9104v-L28 (antibody, human IgG4 S228P, lambda, V domains shown)
VH: B1 VH with F53Y, D57N, R59Y
VL: B1 VL with H54F, P56R
notes: Full-length IgG, lambda

- Kd [2]: 1.07 nM
- koff [2]: 0.000292 s⁻¹
- kon [2]: 272000 M⁻¹ s⁻¹
B32: #9104v-L29 (antibody, human IgG4 S228P, lambda, V domains shown)
VH: B1 VH with F53Y, D57N, R59Y
VL: B1 VL with H54F, P56S, S57T
notes: Full-length IgG, lambda
